B1: library; numbered along this chain (parent)
chain: MATDAALRRLLRLHRTEIAVAVDSAFPLLHALADHDVVPEDKFQETLHLKEKEGCPQAFHALLSWLLTQDSTAILDFWRVLFKDYNLERYGRLQPILDSFPKDVDLSQPRKGRKPPAVPKALVPPPRLPTKRKASEEARAAAPAALTPRGTASPGSQLKAKPPKKPESSAEQQRLPLGNGIQTMSASVQRAVAMSSGDVPGARGAVEGILIQQVFESGGSKKCIQVGGEFYTPSKFEDSGSGKNKARSSSGPKPLVRAKGAQGAAPGGGEARLGQQGSVPAPLALPSDPQLHQKNEDECAVCRDGGELICCDGCPRAFHLACLSPPLREIPSGTWRCSSCLQATVQEVQPRAEEPRPQEPPVETPLPPGLRSAGEEVRGPPGEPLAGMDTTLVYKHLPAPPSAAPLPGLDSSALHPLLCVGPEGQQNLAPGARCGVCGDGTDVLRCTHCAAAFHWRCHFPAGTSRPGTGLRCRSCSGDVTPAPVEGVLAPSPARLAPGPAKDDTASHEPALHRDDLESLLSEHTFDGILQWAIQSMARPAAPFPS

Variants of: B1
Assay: AIRE transcriptional activation functional score (insulin promoter-GFP; nonsense median 0, synonymous median 1) (normalised score); higher = higher AIRE activity (more reporter activation)
Conditions: with insulin promoter-GFP reporter in HEK293
How it was run: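 Functional scores come from comparing select with non-select enrichment of each variant and subtracting wild type. Codon-optimized AIRE NNN-codon libraries across three regions were integrated via Bxb1 recombinase into HEK293 landing-pad cells with an insulin core promoter-GFP reporter, and integrants sorted at day 7 were expanded 7 days before top 10% GFP and unselected populations were tile-sequenced. Variants needed 10 counts per million in non-select, and values were rescaled to nonsense median 0 and synonymous median 1 before averaging over biological replicates.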

AIRE transcriptional activation functional score, by site and new letter:
H415: M -0.327, N 1.22, P 1.11, Q 0.783, R 0.811, S 0.782, T 0.92, V 1.06, W 0.671, Y 1.42
P416: A 0.819, C 1.46, D -0.251, F 0.451, G 0.937, H -0.0276, I 0.0784, K 0.665, L 0.688, M 1.55, N 1.21, Q 1.49, R 0.68, S 1.09, T 0.937, V 0.526, W 1.5, Y 0.419
L417: A 0.892, C 1.24, D 1.12, E 0.739, F 1.3, G 0.679, H 0.632, I 0.855, K 0.833, N 1.05, P 0.784, Q 1.07, R 0.707, S 0.626, T 0.966, V 0.708, W 1.3, Y 1.21
L418: A 1.06, C 1.16, D 0.816, E 0.507, F 1.42, G 1, H 0.443, I 0.6, K 0.4, M 0.207, N 1.02, P 0.93, Q 1.28, R 0.67, S 0.85, T 0.829, V 1.04, Y 1.42
C419: A 0.69, D 0.584, E 1.04, F 1.64, G 0.96, H 0.558, I 0.681, K 1.17, L 1.33, N 0.258, P 1.24, Q 1.3, R 0.836, S 0.615, T 1.2, V 1.22, W 1.21
V420: A 1.04, C 1.11, D 0.683, E 0.728, F 1.03, G 0.846, H 0.593, I 0.811, K 0.606, L 0.722, M 1.43, P 1.01, Q -0.123, R 1.03, S 1.07, T 0.608, W 1.35, Y 0.639
G421: A 0.875, C 1.58, D 1.83, E 1.65, F 1.33, H -0.132, K 0.558, L 0.327, M 0.931, N 0.869, P 1.4, R 0.926, S 0.74, T 0.472, V 0.933, W 1.43, Y -0.246
P422: A 0.724, C 1.28, D 1.69, E 0.766, F 0.774, G 1.53, H 0.986, I 1.26, L 1.3, N 1.18, Q 0.91, R 0.868, S 0.814, T 0.528, V 0.479, W 1.69, Y 1.42
E423: A 1.2, C 0.459, D 1.25, F 1.02, G 1.34, H 1.2, I 1.05, K 0.795, L 1.28, M 0.551, P 0.817, Q 0.981, R 0.409, S 1.27, T 0.737, V 1.2, Y 1.38
G424: A 1.25, C 1.41, D 1, E 0.64, F 1.64, H 0.363, I -0.488, K 1.04, L 1.08, M 0.308, N 0.684, P 1.24, Q 1.49, R 1.03, S 1.19, T 1.59, V 1.25, W 1.26, Y 0.738
Q425: A 0.368, C 0.714, D 0.431, E 0.587, F 1.13, G 1.04, H 1.3, I 1.07, K 0.902, L 1.18, M 0.974, N 0.869, P 1.21, R 0.94, S 1.06, T 0.973, V 0.734, W 1.28, Y 1.28
Q426: A -0.467, C 1.4, D 0.796, E 1.07, F 1.34, G 0.866, H 1.18, I 0.87, K 1.16, L 1.06, M 1.34, N 1.23, P 1.09, R 0.722, S 0.831, T 1.17, V 1.29, W 1.64, Y 1.54
N427: A 1.33, C 1.1, D 1.07, E 1.12, F 1.42, G 1, H 0.904, I 1, K 0.842, L 1.51, M 1.81, P 1.18, Q 0.539, R 0.362, S 1.1, T 1.07, V 1.06, W 1.3, Y 1.47
L428: A 1.08, C 0.816, D 0.545, E 0.885, F 1.09, G 0.959, H 1.48, I 1.22, K 0.817, M 1.32, N 1.08, P 0.955, Q 1.01, R 0.941, S 1.15, T 0.817, W 1.31, Y 1.05
A429: C 0.771, D 1.07, E 0.833, F 1.34, G 0.724, H 1.47, I 1.14, K 0.0334, L 1.06, N 1.09, P 0.614, Q 1.32, R 0.843, S 1.09, T 1.12, V 1.01, W 1.2, Y 0.892
P430: A 0.806, C 0.92, D 0.951, E 1.01, F 1.69, G 1.21, H 1.32, I 1.28, K 0.999, L 1.18, N 1.14, Q 1.01, R 0.778, S 0.992, T 0.77, V 0.632, W 1.3, Y 1.03
G431: A 1.23, C 0.854, D 0.852, E 0.793, F 1.14, H 1.39, I 1.32, K 0.71, L 0.794, M 0.776, N 0.881, P 0.983, Q 0.86, R 0.579, S 0.927, T 1.21, V 1.13, W 1.29, Y 0.576
A432: C 1.2, D 0.806, E 1.16, F 1.06, G 1.22, H 0.437, I 0.534, K 0.599, L 0.822, M 0.0975, N -0.334, P 0.463, Q 0.748, R 0.993, S 0.578, T 0.81, V 0.872, W 1.88, Y 1.28
R433: A 0.402, C 0.922, D 0.895, E 1.39, F 0.678, G 0.748, H 0.569, I 0.308, K 1.03, L 0.786, M 0.755, N 1.15, P 0.565, Q 1.13, S 0.734, T 0.808

Reference: the supplement of paper PMC12667976
